From PMC6504924
pEC50: −log10 of the molar value.

Key:
[1] = molecular target: NanoLuc:VEGFR2 fusion on cells (UniProt P35968); assay: FRET or BRET; saturation binding on live HEK293T cells transiently expressing a NanoLuc:RTK fusion; increasing concentrations of DY605-labeled growth factor with and without excess (0.5 µM) unlabeled equivalent; 1.5 h at room temperature, OptiMEM; apparent affinities (EC50)
[2] = molecular target: NanoLuc:VEGFR2 fusion on cells (UniProt P35968)

Sequence of NanoLuc:VEGFR2 fusion on cells (P35968 20-1356): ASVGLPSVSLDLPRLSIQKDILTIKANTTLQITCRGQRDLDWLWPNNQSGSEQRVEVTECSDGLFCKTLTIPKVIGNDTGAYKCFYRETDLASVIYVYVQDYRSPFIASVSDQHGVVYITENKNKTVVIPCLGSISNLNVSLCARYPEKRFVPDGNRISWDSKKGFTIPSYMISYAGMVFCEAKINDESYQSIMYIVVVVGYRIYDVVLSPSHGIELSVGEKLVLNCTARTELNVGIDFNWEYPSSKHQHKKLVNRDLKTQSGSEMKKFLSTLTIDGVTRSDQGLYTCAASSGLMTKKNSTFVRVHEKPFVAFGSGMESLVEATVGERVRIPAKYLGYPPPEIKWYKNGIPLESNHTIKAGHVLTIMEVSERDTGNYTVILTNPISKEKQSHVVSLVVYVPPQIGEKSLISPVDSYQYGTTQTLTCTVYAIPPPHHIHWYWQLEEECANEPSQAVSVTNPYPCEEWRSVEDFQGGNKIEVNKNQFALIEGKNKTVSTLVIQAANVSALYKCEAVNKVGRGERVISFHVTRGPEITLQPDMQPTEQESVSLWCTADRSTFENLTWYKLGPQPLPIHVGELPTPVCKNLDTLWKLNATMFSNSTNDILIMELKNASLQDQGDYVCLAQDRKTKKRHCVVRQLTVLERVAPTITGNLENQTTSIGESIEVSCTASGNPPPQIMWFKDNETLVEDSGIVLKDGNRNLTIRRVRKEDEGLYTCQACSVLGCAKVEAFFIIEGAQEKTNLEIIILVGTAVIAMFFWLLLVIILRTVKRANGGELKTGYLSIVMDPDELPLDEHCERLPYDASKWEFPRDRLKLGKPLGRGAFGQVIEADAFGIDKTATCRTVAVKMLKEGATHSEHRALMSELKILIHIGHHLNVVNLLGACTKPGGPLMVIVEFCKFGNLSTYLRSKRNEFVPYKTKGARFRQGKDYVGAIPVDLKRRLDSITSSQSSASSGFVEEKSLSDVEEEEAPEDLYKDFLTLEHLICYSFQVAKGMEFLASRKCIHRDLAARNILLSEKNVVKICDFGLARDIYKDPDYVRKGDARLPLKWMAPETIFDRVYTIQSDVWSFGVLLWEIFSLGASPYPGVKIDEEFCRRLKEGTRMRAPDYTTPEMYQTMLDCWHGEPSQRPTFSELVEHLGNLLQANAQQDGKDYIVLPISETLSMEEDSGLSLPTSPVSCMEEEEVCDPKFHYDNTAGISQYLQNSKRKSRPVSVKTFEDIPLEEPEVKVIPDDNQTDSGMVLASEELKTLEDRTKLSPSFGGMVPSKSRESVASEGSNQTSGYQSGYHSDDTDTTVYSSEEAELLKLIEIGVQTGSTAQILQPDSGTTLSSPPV

Row | Substance | pEC50 [1] | NFAT-luciferase reporter, 6 h stimulation; EC50 as fold against the unlabeled counterpart (printed as 'fold lower', weaker response) [2] [fold]
1 | CBT-labeled VEGF165a homodimer (vascular endothelial growth factor isoform VEGF165a labeled with DY605-PEG-CBT on the N-terminal cysteine) (ligand) | 10.35 | 
2 | VEGF165a homodimer labeled with 5-fold molar excess of DY605-NHS-ester (ligand) | 7.92 | > 120
3 | VEGF165a homodimer labeled with 2-fold molar excess of DY605-NHS-ester (ligand) | 8.92 | > 120
